Paper PMC2775414

Target: heavy meromyosin-like fragment of myosin Va (MyoV-HMM), with its bound calmodulin (mouse | not stated) (UniProt Q99104)
Sequence (Q99104 1-1090): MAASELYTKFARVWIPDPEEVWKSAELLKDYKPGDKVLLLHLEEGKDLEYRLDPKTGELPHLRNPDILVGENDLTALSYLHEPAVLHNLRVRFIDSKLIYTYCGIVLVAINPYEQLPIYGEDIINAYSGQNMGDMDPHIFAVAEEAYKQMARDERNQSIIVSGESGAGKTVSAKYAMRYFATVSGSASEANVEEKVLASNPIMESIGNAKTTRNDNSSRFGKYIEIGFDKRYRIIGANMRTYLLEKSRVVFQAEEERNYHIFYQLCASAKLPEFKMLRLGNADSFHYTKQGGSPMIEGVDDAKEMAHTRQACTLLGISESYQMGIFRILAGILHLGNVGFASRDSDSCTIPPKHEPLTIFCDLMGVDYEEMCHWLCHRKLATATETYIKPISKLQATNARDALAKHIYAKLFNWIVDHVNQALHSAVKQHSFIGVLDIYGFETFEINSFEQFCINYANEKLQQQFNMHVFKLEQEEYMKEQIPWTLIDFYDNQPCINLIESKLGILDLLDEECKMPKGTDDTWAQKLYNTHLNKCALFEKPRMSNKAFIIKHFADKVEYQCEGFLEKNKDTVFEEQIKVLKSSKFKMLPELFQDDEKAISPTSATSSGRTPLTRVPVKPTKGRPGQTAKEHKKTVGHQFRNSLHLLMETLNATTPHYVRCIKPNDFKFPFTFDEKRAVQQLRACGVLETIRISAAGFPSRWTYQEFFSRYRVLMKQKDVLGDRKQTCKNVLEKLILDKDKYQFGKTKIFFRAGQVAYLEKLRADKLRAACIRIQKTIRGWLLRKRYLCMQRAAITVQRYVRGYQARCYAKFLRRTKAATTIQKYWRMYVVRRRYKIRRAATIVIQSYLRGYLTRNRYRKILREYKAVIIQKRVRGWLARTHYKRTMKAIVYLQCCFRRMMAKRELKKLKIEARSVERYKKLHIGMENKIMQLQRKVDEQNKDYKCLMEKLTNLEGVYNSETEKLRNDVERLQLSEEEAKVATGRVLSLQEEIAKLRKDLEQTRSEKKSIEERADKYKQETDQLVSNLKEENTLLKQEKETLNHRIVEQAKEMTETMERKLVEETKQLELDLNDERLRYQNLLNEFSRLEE

labelled calmodulins exchanged per MyoV-HMM: 3 per MyoV-HMM
Substance: Alexa-Fluor-568-labelled calmodulin (from UniProt P62157 1-149) (natural protein)
